{"source": "the DeepSol protein solubility set"}
{"assay": "soluble on expression in E. coli; label from the status in PepcDB or PDB records"}
{"sequence": "MSEPFSVPVTVRGYETDTQGHLNQSVYLNYAEHARWSLLQAAGIRQADLVARGVGPVALETTIRFQRELLAGDEVTVTCAFEWGTGKTFRIRQLVTKADGTVAAEIEAVGGLMDLGERRLVPDPRQRFKELAARPELFGLLEHHHHHH", "soluble on expression in E. coli": "not soluble"}
{"sequence": "MSEPPKKPFACAICRNKSSGCHYGVLSCDACKMFFKRTYLMEKYYTCRRQESCYNMDGGNRKCKACRFKKCLEVGMNPELFSRSESQIISTNIPTQLITQDHRNAEFLQKLKILDKTRHEVFKIIDTYENPSFVDLVRQESRLSCYLRPKNISWENTERKLKPWGSLGMLLAVETIKSLDFYPKLLLSDRILLLETVTLKSFHLSVAFDSFSQKKEKILAPDGSEMFPDSLNKMDFCKDLIMRLLTTPVKPLIAMKLTETEYLLLGIIVICNPEIDGLSPSGKAIITAFLQKTINVLLQFCLINNPRSAPSRLLEIISINQILNRQFHASYKLFDALRKQWDPTMSFQKVLVESCKTRGYDLS", "soluble on expression in E. coli": "not soluble"}
{"sequence": "MSEQPASLDPVSKQIIEQLQEDGRRSYSAIGKVVGLSEAAVRQRVQKLIDTGVTQIVAVTDPVQVGFSRQAMVGIRCSGDVTEIAARLADVDAIDYVVLTAGAYDILAEIVCENDDHLLAVLNKEIRTIPGVLGTETMVYLKLVKQQYDWGTR", "soluble on expression in E. coli": "not soluble"}
{"sequence": "MSEQYVYQHGTLGGLMESLMAGTAEIGTLLTQGDFGIGTLEGSNGEIILLDGTLYHANQTGEITILEGEELTPYAAVTRFQEDGAFPVSTETDENIKAQILEKISPNFFAAIKISGLFAKMHVRVAPKQEKPYPPFVEAARNQPEFTAENIQGTVVGFFTPKLFHGASAAGFHLHFISEDHQFGGHILDFGIKQGTVSWMETAELRQHFPVHDADYRNKEIDIAKALSAIEEAE", "soluble on expression in E. coli": "not soluble"}
{"sequence": "MSESCNSLTVVFTDSPKIDDHLFAKAIRWADQNPDDTIFWARRKALERIPEIDVEFSMKAGALRRIRFGYSSKKLLQGCIDIALKASIGSEVAAIFCSMSIPQDCPELGCLLAALANFCNVDDGRAVVVIDLRDDNDDEKQEGVEESDPFENANFLEEEIVENPKELSNEPRETQTQEEFLEKLKRVASIYTKNVLLFDGNEEKFSNCF", "soluble on expression in E. coli": "not soluble"}
{"sequence": "MSETELVGKDELLKAMTMCNSCPDFNLNDLRGKGDNNYQLYDWLIHNLPTAQYVLGKLVELIFSNNLTTGDEKQDEILNNFLYGQTNPEGVTNYHVLVQSIKESIVYGRSGLRFLSKDDGLINVKCNHFGVAQILNKEHYGYKELIGFVIDKKGRAITDVDLREGEIDSEEYFKKGIFVFKNNDNILLPPEKFVNLRVDTSTPKGSSVFDSDIQRVLLIASVYKRLLYDIEYDGAGRLIFWADNANSNEESSNNFLNDTESATKRRQDKYKKEVEEIMKLVKDSNSTSVLAVSNAFKKMDHLPRVTKATEFLSYLNQEGEIMAQVFGVPNVLLGLGKISGNISMEKVIDNAMLNSIIPLRENIATQISSILTNNLKVPKVYFDKYELKSQSDINDRRLKVLTVAERLKALGKEDLANKIIEEEIQL", "soluble on expression in E. coli": "not soluble"}
{"sequence": "MSFDKKVTIAHLSDLHFASKNDRYLTARLDTMLGEFVRRKYDHLVMTGDLIDTASPALWTIIRDALVRHGLFDWTKTTVIPGNHDLIDLEEEMRFYNALNPDDRSRQHRVDDRLRQFNAIFRPLITDNGDALAGVPFVKVMRLGGISLSFVAVNTVDPWSGLDNPAGARGSVSPETLRALQEPGVRQVLDDTFIIGLCHHAYKVYGTGALVDQVFDWTMEFKNRDEYLKAMKNLGVRLVLHGHFHRFQVYQANGINFINGGSFRYSPERYGELVINADGRWSHRFVNLALKKLEHHHHHH", "soluble on expression in E. coli": "not soluble"}
{"sequence": "MSFEQTLEKYAALAVNVGVNIQPGQTLSISAPLEAVQFVRLVTEKAYKSGAKHVYVDWNDETLTRLKFDLAPEEAFAEFPSWKAHAREELAKEGAAFMSIYAENPDLLKGVEASRIATAHKVAGEAMKVYRDYVQADKVSWCVISVPTKEWAAKVFPDVAPEEQEAKLWDAIFKATRADLENPVEAWKEHDETLHTKVDYLNEKHYKALHYTGPGTDLTIELPEKHVWAGAGSLNEKNVPFMANIPTEEVFTMPLKTGVNGQVSSTKPLVFAGNIIDNFTLTFENGRIVDYKAEAGEEALKHLVETDEGSHFLGEVALVPHDSPISNTNVLFYNTLFDENASCHLAIGNAYAFNLVGGKTMSKEELAENGANASITHNDFMIGSAELDIDGITADGRHEPIFRKGNWAF", "soluble on expression in E. coli": "not soluble"}
{"sequence": "MSFFKKLKEKISKQTDTVTEKFKQGLEKTRNSFADKVNDLVFRYRKVDEDFFEELEEILIGADVGVSTVMELIDQLKEEVQRRNIQDPREVQAVISEKLIEIYKGDSDFTNEVNMQKDGLTVVLFVGVNGVGKTTTIGKMAHKFKSEGKSVLLAAGDTFRAGAIEQLEVWGDRVGVEVIKQGSGSDPAAVMYDAVQAAKARNVDVLLCDTAGRLQNKVNLMKELEKVKRVIEREVPGAPHEVLLVIDATTGQNGLSQAKTFREATNVTGIVLTKLDGTAKGGIVLAIRNEMDVPVKFVGLGEQMDDLQQFDPEQYVYGLFANLVETEEV", "soluble on expression in E. coli": "not soluble"}
{"sequence": "MSFLISFDKSKKHPAHLQLANNLKIALALEYASKNLKPEVDNDNAAMELRNTKEPFLLFDANAILRYVMDDFEGQTSDKYQFALASLQNLLYHKELPQQHVEVLTNKAIENYLVELKEPLTTTDLILFANVYALNSSLVHSKFPELPSKVHNAVALAKKH", "soluble on expression in E. coli": "soluble"}
{"sequence": "MSFNKEDQQDEALAFLLAVATVESGDAGAFRQRVTQYMTKAYGEDTSKMTMQEQGRAEAVSRLYARADNIYHRIKVNALPRLSRGF", "soluble on expression in E. coli": "not soluble"}
{"sequence": "MSFRFLILLLLASTLLVNSFPIGKDNESDESEVEVDTTTEAENIEVESQEASLDEQLNEVSEDPTREKRGLYSSERTEEEVEISHGMHHREKRHSEHLPHPDPPSHTAKRSTEHHRVKRSEGHPHEKKATHSPEGHIVAKDDHHGHEKRSSDSHHGHQKRSVDEHHGHQKKNAEDHHEHQKRSEHVEHQAEMHEHQKRSTQEVSGHPEHHLVKRSGGEGGHRHHRSTDQGLDEDEPEDEIQTDENDEVTEEPGSRKRRNTDTPMPSFPSDHDSEHSNSVAIRVKRVSRAGSSHKVRTLNKNRGNSKAGETTQNDSLTPNSGGVFNS", "soluble on expression in E. coli": "not soluble"}
{"sequence": "MSGATPVFTEINQIQGTGDKSPLISSGFISDDEYFVQGVVTARGESLLKGFYLQGLNDDFDPNSSEGIFVSTGSAPSLEIQPGALVCVKAKVQEYYGQTQLKPDTNNFLVQGHQAPVSVTELTINENETLAQALERHEGMQVKLTSHSDLRITRNFSFDYASKRNNMVLSHGEPLFKPTQLFAAESPEAIQLAEENAKRQITIESDNKAPNGEVPYFPDFATDSNQDGSADSYLRLGARIEGLEGVIAYSYGQYRLVTTNTISQENIITQAFDEDGDTLFNVERTDEPSIDDADLTITSFNVLNYFTSVAAGGLEHHHHHH", "soluble on expression in E. coli": "not soluble"}
{"sequence": "MSGDENPASKPTPVQDVQGDGRWMSLHHRFVADSKDKEPEVVFIGDSLVQLMHQCEIWRELFSPLHALNFGIGGDSTQHVLWRLENGELEHIRPKIVVVWVGTNNHGHTAEQVTGGIKAIVQLVNERQPQARVVVLGLLPRGQHPNPLREKNRRVNELVRAALAGHPRAHFLDADPGFVHSDGTISHHDMYDYLHLSRLGYTPVCRALHSLLLRLLTQDQGQGGAPLPEPSP", "soluble on expression in E. coli": "soluble"}
